Here are results for one protein from paper PMC6750108, “Crystal Structure of 4-Hydroxyphenylpyruvate Dioxygenase in Complex with Substrate Reveals a New Starting Point for Herbicide Discovery” (Research, 2019).

The data set concerns the molecule itself. The data set can be described thus: crystal structure; AtHPPD-HPPA complex, hanging drop vapor diffusion, with CoCl2 and HPPA; reservoir 36% (w/v) PEG 400, 0.1 M NaCl, 0.1 M sodium acetate pH 5.0, 18°C; space group P 21, four molecules per asymmetric unit.

B1: Arabidopsis thaliana 4-hydroxyphenylpyruvate dioxygenase (enzyme, UniProt P93836 1-445, looked up)
chain: MGHQNAAVSENQNHDDGAASSPGFKLVGFSKFVRKNPKSDKFKVKRFHHIEFWCGDATNVARRFSWGLGMRFSAKSDLSTGNMVHASYLLTSGDLRFLFTAPYSPSLSAGEIKPTTTASIPSFDHGSCRSFFSSHGLGVRAVAIEVEDAESAFSISVANGAIPSSPPIVLNEAVTIAEVKLYGDVVLRYVSYKAEDTEKSEFLPGFERVEDASSFPLDYGIRRLDHAVGNVPELGPALTYVAGFTGFHQFAEFTADDVGTAESGLNSAVLASNDEMVLLPINEPVHGTKRKSQIQTYLEHNEGAGLQHLALMSEDIFRTLREMRKRSSIGGFDFMPSPPPTYYQNLKKRVGDVLSDDQIKECEELGILVDRDDQGTLLQIFTKPLGDRPTIFIEIIQRVGCMMKDEEGKAYQSGGCGGFGKGNFSELFKSIEEYEKTLEAKQLVG
notes: 4-hydroxyphenylpyruvate dioxygenase, Arabidopsis thaliana, UniProtKB P93836, full-length protein in pET15b; Crystallised with cobalt(II) chloride and the substrate HPPA; also called AtHPPD; HPPD; source: E. coli BL21 (DE3), purified (Ni-NTA, anion exchange, size exclusion chromatography)
B1: the binding result is “binds”.
